B1: antibody 0058 (antibody, V domains shown)
VH: EVQLVESGGGLVQPGGSLRLSCAASGFTFSSFWMTWVRQAPGKGLEWVASISAGGGITHYPDSVKDRFTVSRDNAKNSLYLQLNSLRAEDTAVYYCAESGGDIYSDFDYWGQGTLVTVSS
VL: not shown
notes: Human antibody from a human Ig locus transgenic rabbit; IgG
B2: antibody 0060 (antibody, V domains shown)
VH: EVQLLESGGDLVQPGGSLRLSCAASGFTFRSYAMSWVRQAPGKGLEWVSGISAGGGYIYYADSVTGRFTSSRDNYKNTLYLQMNRLRVEDTAVYYCARFYPGYNSDTYYYDGMDVWGQGTTVTVSS
VL: not shown
notes: as for B1
B3: antibody 0064 (antibody, V domains shown)
VH: EVQLVESGGGLVQPGGSLRLSCAASGFTFSSYWMSWVRQAPGKGLEWVSTISDGGGTTSYADSVKGRFTISRDNSKNTLYLQMNSLRAEDTAVYSCAESGGATDYLFDYWGQGTLVTVSS
VL: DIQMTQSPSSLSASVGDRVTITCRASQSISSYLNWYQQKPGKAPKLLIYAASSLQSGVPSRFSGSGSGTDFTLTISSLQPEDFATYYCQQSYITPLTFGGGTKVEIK
notes: as for B1

How the values were obtained:
[1] = biological target: T1, human PDGF-BB (human, UniProt P01127 82-190); test: cell-based or functional assay
T1 sequence (P01127 82-190 limits assumed): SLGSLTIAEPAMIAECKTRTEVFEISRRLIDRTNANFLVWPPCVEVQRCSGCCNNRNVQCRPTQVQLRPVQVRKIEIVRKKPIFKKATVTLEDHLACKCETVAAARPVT

[2] = biological target: T1, human PDGF-BB; test: cell-based or functional assay; remark: listed apart in the source
[3] = biological target: T2, cynomolgus PDGF-BB (cynomolgus, UniProt A0A2K5UX81 82-190, Disulfide-linked homodimer of two identical B chains; one copy is given.); test: ELISA, cynomolgus PDGF-BB (Example 10)
T2 construct: also called cynPDGF-BB
T2 sequence (A0A2K5UX81 entry or part of it limits assumed): as the sequence (P01127 82-190 limits assumed) above, with I7V counted along it

[4] = biological target: T1, human PDGF-BB; test: ELISA, immobilized human PDGF-BB (Example 9)
Description: (§1) The binding analysis was carried out using an enzyme-linked immunosorbent assay (ELISA)-based technology. The antigen human PDGF-BB (Cell Signaling, Cat. No 8921BF) was immobilized at a concentration of 125 ng/mL in 25 μL in PBS, 0.5% BSA and 0.05% Tween on a 384 well microtiter plate (Thermo Scientific, Cat. No. 464718). Every of the following steps was followed by a washing routine of 3 times 90 μL PBS with dispense and aspiration: 1) blocking step: saturating unbound surface (1 hour, 2% BSA); 2) anti-PDGF-BB antibody in increasing concentrations for 1 hour; 3) detection antibody, dilution=1:3000 (ECL anti-rabbit IgG-POD, NA9340V+ECL anti-human IgG-POD, NA933V or alternatively for murine antibodies ECL anti-mouse IgG-POD; NA 9310V). 20-30 min. after adding the substrate 3,3′,5,5′-tetramethylbenzidine (TMB, Piercenet, Cat. No. 34021) the optical density was determined at 370 nm. The EC₅₀ was calculated with a four parameter logistic model using GraphPad Prism 6.0 software.

[5] = biological target: T3, murine PDGF-BB (murine, UniProt P31240 82-190); test: ELISA, immobilized murine PDGF-BB (Example 11)
T3 construct: also called muPDGF-BB
T3 sequence (P31240 82-190): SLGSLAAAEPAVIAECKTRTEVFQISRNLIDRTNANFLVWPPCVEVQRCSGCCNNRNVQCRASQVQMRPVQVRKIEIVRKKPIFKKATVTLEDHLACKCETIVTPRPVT
Description: as §1, with “antigen murine” for “antigen human”, “PDGF-BB (Peprotech 315-18)” for “PDGF-BB (Cell Signaling, Cat. No 8921BF)”, “μL PBS, 0.5% BSA, 0.05 Tween” for “μL PBS”

[6] = biological target: T1, human PDGF-BB; test: SPR, IgG on immobilized human PDGF-BB (Example 17)
Description: (§2) The binding analysis was carried out using a surface plasmon resonance spectroscopy-based technology applying a BIAcore B4000 system (GE Healthcare). The antigen human PDGF-BB (Cell Signaling, Cat. No. 8921BF) was immobilized at a concentration of 1 μg/mL in PBS, 0.1% BSA, 0.05 Tween using amine coupling chemistry on a C1 sensor chip (GE Healthcare, Cat. No. BR-1005-35). Anti-PDGF-BB antibody in increasing concentrations was applied in 10 mM HEPES pH 7.2, 150 mM NaCl. Utilizing a read out time of 180 sec. association phase and 600 sec. dissociation phase the apparent kₐ and apparent kd were calculated. The apparent KD (avidity) was calculated using the BIAcore T200 v2.0 fitting software.

[7] = biological target: T1, human PDGF-BB; test: SPR kinetic screening, IgG on immobilized human PDGF-BB (Example 27)
Description: Binding of anti-PDGF-BB antibodies to human PDGF-BB was investigated by surface plasmon resonance using a BIACORE T200 instrument (GE Healthcare). Around 20 resonance units (RU) of recombinant human PDGF-BB (5 μg/ml; ordering code 220-BB; R&D Systems) were coupled on a Series S C1 chip (GE Healthcare BR-1005-35) at pH 4.0 by using an amine coupling kit supplied by GE Healthcare. Running buffer for immobilization was HBS-N pH 7.4 (10 mM HEPES, 150 mM NaCl, pH 7.4, GE Healthcare). For the following kinetic characterization, running and dilution buffer was HBS-P pH 7.4 (10 mM HEPES, 150 mM NaCl, 0.05% Surfactant P20, pH 7.4, GE Healthcare). The flow cell was set to 25° C.—and the sample block set to 12° C.—and primed with running buffer twice.

[8] = biological target: T1, human PDGF-BB; test: SPR, apparent KD (avidity), IgG on immobilized human PDGF-BB (Example 17)
Description: as §2

Binder | IC50 Phospho-Inhibition [1] [mg/L] | IC50 Proliferation 3T3 [1] [mg/L] | Balb-C3T3 Proliferation % neutralization [2] [%] | Balb-C3T3 Proliferation IC50 [2] [nM] | Pericytes Migration % neutralization [2] [%] | Pericytes Migration IC50 [2] [nM] | Pericytes Proliferation % neutralization [2] [%] | Pericytes Proliferation IC50 [2] [nM] | EC50 [3] [mg/L] | EC50 [4] [mg/L] | EC50 [5] [mg/L] | koff [6] [s⁻¹] | kon [6] [M⁻¹ s⁻¹] | koff [7] [s⁻¹] | t½ [7] [min] | Kd [8] [nM]
B1 | 0.0029 | 0.0793 | 100 | 0.24 | 100 | 0.002 | 100 | 0.08 | 0.0034 | 0.0401 | 0.0332 | 0.00011 | 1.8e+06 | 0.000291 | 40 | 0.062
B2 | 0.0016 | 0.0363 | 90 | 0.29 | 100 | 0.013 | 100 | 0.6 | 0.0415 | 0.0375 | 0.0428 | 2.9e-05 | 370000 | 0.000264 | 44 | 0.0782
B3 | – | 0.062 | 100 | 0.024 | 100 | 0.14 | 100 | 0.08 | 0.00741 | 0.016 | 0.00268 | 5.5e-05 | 720000 | 0.000135 | 85 | 0.0769

— patent publication US20170247440A1 (Hoffmann-La Roche, published 2017)
